# From the supplement of paper PMC10065799, “High-throughput profiling of sequence recognition by tyrosine kinases and SH2 domains using bacterial peptide display” (eLife, 2023)
# Tests used:
# AncSZ = assay: phosphorylation enrichment, bacterial display (enrichment ratio); higher = better substrate or ligand; peptides without Tyr show the background
# EPHB1 = EPHB1 (UniProt P54762); assay: as above
# EPHB2 = EPHB2 (UniProt P29323); assay: as above
# FGFR1 = FGFR1 (UniProt P11362); assay: as above
# FGFR3 = FGFR3 (UniProt P22607); assay: as above
# Fer (mouse) = assay: as above
# Fes = Fes (UniProt P07332); assay: as above
# Fyn = Fyn (UniProt P06241); assay: as above
# Hck = Hck (UniProt P08631); assay: as above
# Jak2 = Jak2 (UniProt O60674); assay: as above
# MERTK = MERTK (UniProt Q12866); assay: as above
# c-Abl (mouse) = assay: as above
# c-Src = assay: as above
# Grb2 SH2 = Grb2 SH2 (UniProt P62993); assay: SH2 binding enrichment of the phosphorylated peptide, bacterial display (enrichment ratio); higher = better substrate or ligand; peptides without Tyr show the background
# SHP2-C SH2 = assay: as above
# c-Src SH2 = assay: as above
# 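Wherever SH2 binding enrichment of the phosphorylated peptide, bacterial display is given: peptide library displayed on the E. coli surface as eCPX fusions, selected cells deep-sequenced, score is each peptide's frequency after selection divided by its frequency in the input.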
# 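Wherever phosphorylation enrichment, bacterial display is given: 11-residue human phosphosite peptides and single-mutation variants displayed on the E. coli surface, counted by deep sequencing, each peptide's frequency after selection divided by its frequency in the unselected input library; frequency after pTyr selection over input frequency; kinase dosed for 20-30% of maximal phosphorylation in three min.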
# FGFR1, sequence (P11362 whole entry, looked up): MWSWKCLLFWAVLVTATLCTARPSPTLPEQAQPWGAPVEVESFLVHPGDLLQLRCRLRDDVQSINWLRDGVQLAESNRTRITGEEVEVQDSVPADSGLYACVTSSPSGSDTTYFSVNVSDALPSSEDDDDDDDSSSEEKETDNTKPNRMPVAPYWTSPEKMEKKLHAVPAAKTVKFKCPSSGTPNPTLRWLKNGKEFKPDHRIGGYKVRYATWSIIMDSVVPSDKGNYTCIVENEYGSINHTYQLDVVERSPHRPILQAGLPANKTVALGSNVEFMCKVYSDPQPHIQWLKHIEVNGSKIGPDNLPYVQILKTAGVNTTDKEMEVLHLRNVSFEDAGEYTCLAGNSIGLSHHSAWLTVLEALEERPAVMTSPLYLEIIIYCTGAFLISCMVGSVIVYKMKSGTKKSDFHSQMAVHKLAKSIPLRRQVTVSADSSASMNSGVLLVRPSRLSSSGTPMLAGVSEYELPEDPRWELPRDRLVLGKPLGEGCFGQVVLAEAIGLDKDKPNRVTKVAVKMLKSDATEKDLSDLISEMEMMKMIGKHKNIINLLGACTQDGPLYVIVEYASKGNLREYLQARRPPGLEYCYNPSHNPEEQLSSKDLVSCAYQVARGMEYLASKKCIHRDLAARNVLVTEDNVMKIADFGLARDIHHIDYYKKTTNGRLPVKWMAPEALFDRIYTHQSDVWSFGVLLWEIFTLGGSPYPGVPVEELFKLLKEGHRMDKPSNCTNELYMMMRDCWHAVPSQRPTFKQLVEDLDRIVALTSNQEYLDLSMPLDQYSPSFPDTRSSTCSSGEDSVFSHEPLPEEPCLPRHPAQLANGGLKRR
# MERTK, sequence (Q12866 whole entry, looked up): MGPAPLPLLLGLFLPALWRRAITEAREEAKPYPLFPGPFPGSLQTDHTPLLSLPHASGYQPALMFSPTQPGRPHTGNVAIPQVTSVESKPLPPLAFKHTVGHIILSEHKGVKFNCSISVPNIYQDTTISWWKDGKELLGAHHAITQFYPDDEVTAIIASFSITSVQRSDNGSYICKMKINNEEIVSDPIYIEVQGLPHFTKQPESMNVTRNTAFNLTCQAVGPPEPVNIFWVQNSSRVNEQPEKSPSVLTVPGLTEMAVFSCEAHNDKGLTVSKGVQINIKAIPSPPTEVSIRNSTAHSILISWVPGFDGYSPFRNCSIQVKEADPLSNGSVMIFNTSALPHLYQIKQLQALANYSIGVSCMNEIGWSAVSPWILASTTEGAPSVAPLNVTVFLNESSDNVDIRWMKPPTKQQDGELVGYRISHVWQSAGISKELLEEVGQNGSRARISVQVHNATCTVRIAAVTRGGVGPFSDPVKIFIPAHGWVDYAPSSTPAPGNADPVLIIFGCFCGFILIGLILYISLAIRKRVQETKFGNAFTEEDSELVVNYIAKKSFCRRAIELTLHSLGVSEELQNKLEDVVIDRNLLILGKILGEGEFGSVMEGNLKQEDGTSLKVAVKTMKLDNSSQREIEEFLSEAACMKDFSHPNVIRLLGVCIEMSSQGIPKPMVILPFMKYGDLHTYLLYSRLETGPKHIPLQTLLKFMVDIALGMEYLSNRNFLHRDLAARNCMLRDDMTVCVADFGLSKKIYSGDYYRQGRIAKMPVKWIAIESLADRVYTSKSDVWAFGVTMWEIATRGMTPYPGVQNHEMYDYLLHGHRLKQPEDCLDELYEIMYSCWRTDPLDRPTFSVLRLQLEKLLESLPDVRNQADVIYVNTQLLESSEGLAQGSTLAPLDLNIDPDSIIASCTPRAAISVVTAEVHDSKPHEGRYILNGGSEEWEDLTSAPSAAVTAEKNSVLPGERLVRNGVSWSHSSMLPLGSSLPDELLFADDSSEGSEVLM
# FGFR3, sequence (P22607 whole entry, looked up): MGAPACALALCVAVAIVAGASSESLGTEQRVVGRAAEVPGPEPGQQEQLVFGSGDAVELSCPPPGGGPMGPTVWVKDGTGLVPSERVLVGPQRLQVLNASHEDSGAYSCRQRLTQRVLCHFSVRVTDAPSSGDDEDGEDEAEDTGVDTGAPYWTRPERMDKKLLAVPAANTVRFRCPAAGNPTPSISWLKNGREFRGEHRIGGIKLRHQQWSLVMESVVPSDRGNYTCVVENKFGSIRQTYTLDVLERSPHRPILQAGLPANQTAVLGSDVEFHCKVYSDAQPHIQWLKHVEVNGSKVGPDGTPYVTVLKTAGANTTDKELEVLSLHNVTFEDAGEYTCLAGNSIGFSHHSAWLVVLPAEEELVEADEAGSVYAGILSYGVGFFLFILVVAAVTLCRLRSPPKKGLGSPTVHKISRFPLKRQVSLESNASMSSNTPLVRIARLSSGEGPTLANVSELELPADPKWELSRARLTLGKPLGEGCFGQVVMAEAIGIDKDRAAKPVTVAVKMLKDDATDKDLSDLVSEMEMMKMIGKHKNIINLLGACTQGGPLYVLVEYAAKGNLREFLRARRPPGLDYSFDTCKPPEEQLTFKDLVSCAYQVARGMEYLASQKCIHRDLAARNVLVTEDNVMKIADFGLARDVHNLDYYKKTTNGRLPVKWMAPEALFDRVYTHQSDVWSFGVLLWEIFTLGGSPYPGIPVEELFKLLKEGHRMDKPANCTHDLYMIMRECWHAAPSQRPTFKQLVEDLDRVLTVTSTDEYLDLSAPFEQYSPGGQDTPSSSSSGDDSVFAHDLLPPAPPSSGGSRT
# EPHB1, sequence (P54762 whole entry, looked up): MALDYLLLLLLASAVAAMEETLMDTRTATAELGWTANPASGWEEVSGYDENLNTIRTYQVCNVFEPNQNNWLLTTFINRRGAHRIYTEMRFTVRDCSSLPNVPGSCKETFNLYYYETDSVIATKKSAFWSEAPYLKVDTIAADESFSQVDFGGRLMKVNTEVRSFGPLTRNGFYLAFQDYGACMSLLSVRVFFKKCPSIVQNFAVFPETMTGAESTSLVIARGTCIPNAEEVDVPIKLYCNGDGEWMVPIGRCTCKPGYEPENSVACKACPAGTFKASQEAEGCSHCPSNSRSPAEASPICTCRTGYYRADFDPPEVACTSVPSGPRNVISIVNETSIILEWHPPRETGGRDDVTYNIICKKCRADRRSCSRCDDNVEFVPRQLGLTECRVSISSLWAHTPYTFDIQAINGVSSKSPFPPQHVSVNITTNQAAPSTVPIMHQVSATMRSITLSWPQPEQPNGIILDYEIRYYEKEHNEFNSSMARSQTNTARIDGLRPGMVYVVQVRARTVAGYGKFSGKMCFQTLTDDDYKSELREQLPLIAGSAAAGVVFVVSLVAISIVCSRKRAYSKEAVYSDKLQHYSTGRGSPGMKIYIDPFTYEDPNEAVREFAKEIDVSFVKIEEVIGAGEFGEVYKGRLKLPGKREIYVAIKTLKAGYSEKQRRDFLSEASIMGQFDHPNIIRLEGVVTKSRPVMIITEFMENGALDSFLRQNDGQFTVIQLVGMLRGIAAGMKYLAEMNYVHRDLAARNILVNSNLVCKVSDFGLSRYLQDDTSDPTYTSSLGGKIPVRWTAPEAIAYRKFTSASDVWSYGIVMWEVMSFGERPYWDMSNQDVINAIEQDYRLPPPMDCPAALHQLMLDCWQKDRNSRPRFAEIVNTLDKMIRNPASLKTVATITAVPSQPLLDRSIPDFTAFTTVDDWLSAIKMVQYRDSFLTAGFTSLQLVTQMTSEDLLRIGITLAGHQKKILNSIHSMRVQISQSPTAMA
# Fyn, sequence (P06241 whole entry, looked up): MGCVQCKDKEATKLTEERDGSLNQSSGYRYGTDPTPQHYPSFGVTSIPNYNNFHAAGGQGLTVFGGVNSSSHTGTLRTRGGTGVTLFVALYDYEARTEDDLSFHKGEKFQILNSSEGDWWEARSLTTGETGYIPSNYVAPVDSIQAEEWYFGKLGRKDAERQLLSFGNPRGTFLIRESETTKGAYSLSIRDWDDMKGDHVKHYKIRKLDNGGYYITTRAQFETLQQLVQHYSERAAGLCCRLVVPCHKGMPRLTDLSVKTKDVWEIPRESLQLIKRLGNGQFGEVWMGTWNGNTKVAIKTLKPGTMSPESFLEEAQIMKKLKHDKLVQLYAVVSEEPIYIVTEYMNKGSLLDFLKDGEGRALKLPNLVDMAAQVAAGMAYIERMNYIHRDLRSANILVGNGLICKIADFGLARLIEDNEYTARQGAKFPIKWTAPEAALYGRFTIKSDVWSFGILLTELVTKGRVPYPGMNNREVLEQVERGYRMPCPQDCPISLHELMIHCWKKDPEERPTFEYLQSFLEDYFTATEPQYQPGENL
# Grb2 SH2, sequence (P62993 whole entry, looked up): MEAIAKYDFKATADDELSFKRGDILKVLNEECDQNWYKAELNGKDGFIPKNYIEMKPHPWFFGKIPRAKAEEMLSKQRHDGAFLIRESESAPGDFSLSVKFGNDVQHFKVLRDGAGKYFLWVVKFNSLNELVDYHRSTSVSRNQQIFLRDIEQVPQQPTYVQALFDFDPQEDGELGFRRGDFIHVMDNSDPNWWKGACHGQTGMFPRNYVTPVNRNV
# Hck, sequence (P08631 whole entry, looked up): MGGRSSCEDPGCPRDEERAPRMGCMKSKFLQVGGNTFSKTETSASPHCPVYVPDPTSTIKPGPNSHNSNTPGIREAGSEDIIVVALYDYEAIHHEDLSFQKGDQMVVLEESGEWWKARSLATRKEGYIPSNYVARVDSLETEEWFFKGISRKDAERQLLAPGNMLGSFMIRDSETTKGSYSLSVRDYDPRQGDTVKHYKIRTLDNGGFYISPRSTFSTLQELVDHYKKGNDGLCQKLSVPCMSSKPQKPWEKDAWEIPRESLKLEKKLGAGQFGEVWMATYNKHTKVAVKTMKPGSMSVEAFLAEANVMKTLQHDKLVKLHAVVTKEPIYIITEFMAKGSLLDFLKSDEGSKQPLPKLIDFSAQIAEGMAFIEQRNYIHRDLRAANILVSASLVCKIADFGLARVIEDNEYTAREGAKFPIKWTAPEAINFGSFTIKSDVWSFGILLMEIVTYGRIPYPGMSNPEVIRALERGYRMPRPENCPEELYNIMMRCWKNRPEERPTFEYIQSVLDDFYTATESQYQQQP
Sequence,phosphorylation enrichment (AncSZ),phosphorylation enrichment (EPHB1),phosphorylation enrichment (EPHB2),phosphorylation enrichment (FGFR1),phosphorylation enrichment (FGFR3),phosphorylation enrichment (Fer (mouse)),phosphorylation enrichment (Fes),phosphorylation enrichment (Fyn),phosphorylation enrichment (Hck),phosphorylation enrichment (Jak2),phosphorylation enrichment (MERTK),phosphorylation enrichment (c-Abl (mouse)),phosphorylation enrichment (c-Src),SH2 binding enrichment (Grb2 SH2),SH2 binding enrichment (SHP2-C SH2),SH2 binding enrichment (c-Src SH2)
TLKDVYDDGKF [RPS6KA3_Y483_YF],0.988,0.542,0.513,0.614,0.66,0.488,1.04,0.548,0.66,0.655,0.515,0.549,0.625,0.781,0.566,0.433
TLKVGYKEKQR [EPHA3_Y659_T660K],0.367,0.45,0.366,0.348,0.555,0.358,0.699,0.333,0.328,0.812,0.37,0.547,0.334,0.919,1.14,1.02
TLLSAYQIPRT [GAB2_Y324_P320L],0.729,0.55,0.42,0.418,0.531,0.545,0.74,0.387,0.533,0.68,1.18,9.51,0.435,0.91,0.73,0.786
TLNHQYDFTFD [CSNK1A1_Y292_YF],1.22,0.553,0.543,0.57,0.653,0.543,1.07,0.507,0.495,0.989,0.6,0.705,0.485,0.844,0.701,8.5
TLNHQYDYTFD [CSNK1A1_Y292],1.05,0.512,0.706,0.85,0.824,0.432,0.964,0.519,0.536,0.783,0.453,0.565,1.27,0.779,0.691,9.88
TLRETYGEMAD [ALB_Y108],0.999,0.54,0.559,0.519,0.836,0.446,1.2,0.627,0.555,0.982,0.454,0.885,0.702,1.11,0.579,0.91
TMKSHYMELFD [BBS2_Y644_R643H_YF],1.1,0.764,0.582,0.708,0.72,0.547,0.966,0.51,0.601,0.772,0.893,0.572,0.431,0.824,1.48,7.06
TNEYEYDELIV [TGM1_Y136_D132N],1.45,0.814,0.975,0.809,0.925,0.593,1.23,0.952,0.769,1.29,0.525,0.962,0.981,0.798,0.854,0.84
TPGPNYRPGFN [USH2A_Y463_YF],0.707,0.531,0.436,0.647,0.646,0.498,0.716,0.536,0.586,0.675,0.87,0.576,0.452,0.776,0.505,0.416
TQTPPYVKKHR [LARP1B_Y457_P462R],0.774,0.575,0.545,0.683,1.22,0.684,1.23,0.531,0.649,1.04,0.541,1.18,0.624,1.18,0.956,0.954
TRTDAYAVSSF,0.78,0.383,0.464,0.567,0.534,0.405,0.657,0.419,0.357,1.08,0.388,0.645,0.443,0.729,0.525,0.837
TTPGPYRSIYF [MPG_Y71],0.595,0.268,0.278,0.44,0.515,0.54,1,0.641,0.662,0.433,0.422,0.547,1.27,1.48,6.08,2.11
TVVGLYQKSSL [MYH7_Y609],0.973,0.567,0.638,0.483,0.75,0.675,0.988,0.55,0.685,0.849,0.627,0.793,0.483,0.872,0.67,0.619
TWSSSYRSDRL [CRYBB1_Y131],0.682,0.441,0.608,0.398,0.389,0.477,1.07,0.456,0.419,0.621,0.448,0.593,0.451,0.997,0.722,0.473
VATSWYRSPEL [CDKL5_Y177_R175S],0.768,0.417,0.435,0.553,0.545,0.409,0.656,0.466,0.469,0.548,0.412,0.427,0.344,0.827,0.77,0.549
VDGSLYKTHPQ [HK1_Y417],0.472,0.436,0.389,0.338,0.419,0.421,0.556,0.44,0.365,0.409,0.378,0.425,0.385,0.765,0.596,0.465
VDLSKCITTIA [FAS_Y232_Y232C],0.975,0.626,0.533,0.461,0.641,0.413,1.01,0.402,0.431,0.697,0.364,0.681,0.308,0.742,0.529,0.374

Sequence,phosphorylation enrichment (AncSZ),phosphorylation enrichment (EPHB1),phosphorylation enrichment (EPHB2),phosphorylation enrichment (FGFR1),phosphorylation enrichment (FGFR3),phosphorylation enrichment (Fer (mouse)),phosphorylation enrichment (Fes),phosphorylation enrichment (Fyn),phosphorylation enrichment (Hck),phosphorylation enrichment (Jak2),phosphorylation enrichment (MERTK),phosphorylation enrichment (c-Abl (mouse)),phosphorylation enrichment (c-Src),SH2 binding enrichment (Grb2 SH2),SH2 binding enrichment (SHP2-C SH2),SH2 binding enrichment (c-Src SH2)
VDTFWYKFLKR [EPM2A_Y86],1.21,0.657,0.629,0.553,0.716,0.525,1.18,0.406,0.467,1.05,0.432,0.78,0.371,0.957,1.04,0.602
VEGISYDFIPT [CBS_Y308_G307S],1.28,0.578,0.568,0.564,0.941,0.96,0.982,0.529,1.9,0.984,2.96,0.754,0.596,0.654,0.633,2.11
VFLGAYDCFLP [SLC22A5_Y486_R488C_YF],1.6,2.6,4.47,0.631,0.757,4.68,1.28,5.7,3.27,1.17,5.67,0.953,4.75,0.947,0.749,0.951
VGSEDYGRDLT [SPTAN1_Y1792],1.1,0.626,0.587,0.564,1.04,0.621,1.44,0.588,0.592,1.24,0.456,1.04,0.513,0.63,0.571,0.369
VGTKWYMAPEV [ACVRL1_Y375_R374W],0.899,1.78,1.93,0.827,0.747,0.374,0.764,0.364,0.458,0.963,2.9,0.726,0.416,0.956,0.674,0.737
VKANTYEKYWP [GATM_Y100],0.785,0.59,0.825,0.454,0.471,0.506,0.71,1.32,1.01,0.728,0.976,0.492,2.02,1.12,0.888,1.02
VLSIDYFFPPQ [AR_Y552_P549S_YF],5.83,1.08,0.843,12.7,10.5,0.516,1.12,0.497,0.572,1.58,0.719,0.784,0.827,1.46,0.998,0.852
VLVSQYEKLNA [AMZ2_Y26],0.619,0.524,0.341,0.362,0.548,0.417,0.732,0.438,0.467,0.638,0.434,0.578,0.389,0.915,0.632,2.71
VNFGAYINDFK [GLB1_Y488_YF],0.909,0.545,0.568,0.459,0.621,0.393,0.997,0.498,0.441,0.83,0.352,0.558,0.369,1.74,0.551,0.625
VNLVLHLSIAK [FBXO15_Y496_Y496H],1.15,0.583,0.609,0.476,0.85,0.799,1.36,0.492,0.588,1.36,0.391,0.88,0.446,0.652,0.511,0.351
VQSASYLNDCL [MCM3AP_Y864_A867D],0.788,0.536,0.602,0.757,0.712,0.487,0.97,0.448,0.502,0.798,0.447,0.693,0.422,2.03,0.875,0.572
VQVAYYTVMMN [SPATA17_Y84_M86V],1.79,2.88,1.47,5.77,4.41,1.97,1.71,1.7,1.69,3.06,4.41,1.01,2.03,1.63,0.952,1.93
VRFVDYVLFRS [FAM189B_Y361_S358F],1,2.13,0.919,2.27,1.65,0.458,1.1,0.542,0.499,1.01,0.461,0.764,0.477,2.04,1.77,1.44
VRQQVYKKVEE [HADHA_Y283],0.617,0.378,0.411,0.344,0.536,0.331,0.716,0.44,0.387,0.639,0.346,0.446,0.397,0.736,0.513,0.427
VRRRSYSAGNA [KANK1_Y324_K321R],0.567,0.404,0.603,0.549,0.742,0.664,0.49,0.504,0.516,0.471,0.509,0.613,0.58,0.706,0.557,0.488
VSKGGYFSVNL [C3orf33_Y164],0.875,0.556,0.672,0.428,0.599,0.423,0.972,0.485,0.483,1.08,0.418,0.682,0.44,0.872,1.07,2.06
